# Assays:
# [1] = Plasma pharmacokinetics in BALB/c mice (ELISA, total antibody and total ADC); format: in vivo, mouse; settings: for Elimination half-life (hrs) Total Antibody: plasma ELISA
# Protocol: Mice. Female BALB/c mice (BALB/cAnNCrl, Charles River) were eight weeks old with body weights ranging from 15.9 to 21.9 grams at the beginning of the study. The animals were fed ad libitum water (reverse osmosis, 1 ppm Cl) and NIH 31 Modified and Irradiated Lab Diet® consisting of 18.0% crude protein, 5.0% crude fat, and 5.0% crude fiber. The mice were housed on irradiated Enrich-o'cobs™ Laboratory Animal Bedding in static microisolators on a 12-hour light cycle at 20-22° C. (68-72° F.) and at 40-60% humidity. Charles River Discovery Services North Carolina (CR Discovery Services, who carried out this contracted R&D) specifically complies with the recommendations of the Guide for Care and Use of Laboratory Animals with respect to restraint, husbandry, surgical procedures, feed and fluid regulation, and veterinary care. The Animal Care and Use program at CR Discovery Services is accredited by the Association for Assessment and Accreditation of Laboratory Animal Care International, which assures compliance with accepted standards for the care and use of laboratory animals.
# Therapeutic (test) Agents. All test agents were supplied as ready-to-dose dosing solutions. All dosing solutions were stored at 4° C. until dosed. All treatments were administered in a dosing volume scaled to the body weights of the individual animals to obtain the dosing concentration described in the treatment tables.
# Treatment (mice). On Day 1 of the study, mice were divided into groups each consisting of eighteen mice (per test agent being evaluated), and dosing was initiated according to the treatment plan summarized in the treatment tables. All doses were administered intravenously (i.v.) by tail vein injection as described in the tables below.
# Endpoint. The study endpoint occurred after the last sampling point, typically on Day 2 or 4, twenty-four or seventy-two hours post dose.
# Sampling (mice). Blood (full blood volume) was collected from three animals per treatment group per timepoint. Samples were collected from all animals via terminal cardiac puncture under isoflurane anesthesia. Once collected, blood samples were collected into collection tubes containing lithium heparin or K2EDTA as anticoagulants and were processed for plasma at each timepoint. Each plasma sample was stored at −80° C. until used for analysis.
# Quantification of test agents in plasma. An ELISA was carried out as described in Example 31 The detecting antibodies were (a) Anti-T7 tag to detect the scFv (total antibody), (b) Anti-Human Fab-specific to detect trastuzumab (total antibody), (c) Anti-MMAF (Concortis), Anti-MMAE (Concortis), anti-DM1
# (Concortis) and anti-cemadotin (in-house mouse monoclonal antibody, Example 33 that also recognised P5C5 and AuristatinF), total ADC. The reference test agents were used to construct a calibration curve for which the plasma samples were compared to, in order to quantify the amount present. The concentration was plotted against time (average of three animals with standard error) and fitted to a 2-phase decay curve using GraphPad Prism to derive kinetic parameters.
# HER2 = HER2 (Homo sapiens, UniProt P04626); assay: Biacore SPR binding to immobilised HER2; settings: immobilised HER2
# Outline: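 HER2 amine-coupled on CM5 or CM3 chips, Biacore T200. Free antibody (typically 5-0.6 μg/ml) and conjugates (20-2.5 μg/ml) injected 160 s at 30 μl/min, 900 s dissociation (3600 s at highest concentration); regeneration with 8M MgCl2. Kinetics compared with unmodified scFv.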
# [2] = Blood clearance in mice by direct ADC/scFv detection ELISA; format: in vivo, mouse; settings: BALB/c mice
# Protocol: An anti-Cemadotin MAb was raised (Example 33) and used to follow the ADC in mouse blood, to determine the pharmacokinetic properties. Normal BALB/c mice, 6-8 weeks old were maintained in filtered cages until used. A single batch of material (scFv-TCT, scFv (TCT)-Cemadotin, DAR=5 or 8) were prepared as above (Example 31) and 0.1 mg was injected into groups of 20 mice that were sacrificed at 4 time points (5 mice analysed per time point). Around 0.5 ml of whole blood was removed by cardiac puncture into EDTA-tubes and the serum collected by centrifugation. The serum was diluted appropriately into PBS and analysed by ELISA on HER2 coated micro-titre plates (Example 11D), detecting either by anti-T7 Tag (total antibody) or anti-cemadotin (total ADC). Non-injected reference samples were used to create a calibration curve for a direct read-out of ADC/ScFv blood concentration.
# [3] = Concentration reached and storage stability of purified conjugates in buffer; format: physicochemical; settings: Storage buffer 20 mM Sodium Acetate pH5, 150 mM NaCl
# [4] = Blood clearance of 125-I radiolabelled scFv/conjugates in mice; format: in vivo, mouse; settings: total protein level by 125-I labelling, 10 μg i.v., BALB/c mice
# Protocol: An scFv, optimised for lysine conjugation was prepared as described in Example 27 or 28 and conjugated (as described in Example 31) to an NHS-derived Cemadotin drug (compound 2). The average DAR was 5 for scFv-TCT-Cem-1 and 4 for scFv-TCT-Cem-2 as determined by SDS-PAGE and IEF gels. This was radiolabelled with Iodine-125 using sodium-125-Iodide (MP Biologicals) and Iodogen™ tubes (Thermo) according to the manufacturer's instructions.
# Ten micrograms of radiolabelled scFv or conjugate were injected intravenously into the tail vein of a group of 4 BALB/c female mice (Harlan UK) per time point. At each time point, blood was collected by cardiac puncture under terminal anaesthesia from 4 mice and the spleens were removed by dissection. The radioactivity from the blood and spleen tissues was measured using a gamma counter and compared to the injected dose, correcting for tissue weight. The percentage-injected dose per gram of tissue was plotted over time and pharmacokinetic parameters determined by fitting to a bi-exponential clearance model. […] This is described by the exponential decay, double, four-parameter equation y=ae^−bx+ce^−dx, where the distribution phase clearance rate (t1/2 alpha) can be determined by In 2/b, and the elimination clearance rate (t1/2 beta) can be determined by In 2/d.
# [5] = 0.1 mg injected, serum, anti-T7 tag detection
molecule,measurement,setting,value
"scFv (TCT): anti-HER2 scFv: Tev cleavage site, C6.5, T7 tag; SEQ ID NO: 2 (protein, Amino Acid sequence of cleaved TCT) scFv: SGSGGSGQVQLVQSGAEVKKPGESLKISCKGSGYSFTSYWIAWVRQMPGKGLEYMGLIYPGDSDTKYSPSFQGQVTISVDKSVSTAYLQWSSLKPSDSAVYFCARHDVGYCSSSNCAAWPEYFQHWGQGTLVTVSSGGGGSGGGGSGGGGSQSVLTQPPSVSAAPGQKVTISCSGSSSNIGNNYVSWYQQLPGTAPKLLIYGHTNRPAGVPDRFSGSKSGTSASLAISGFRSEDEADYYCAAWDDSLSGWVFGGGTKLTVLMASMTGGQQMG","Bioavailability (blood exposure, AUC, 24 hrs)","[1]; mice, 1 × 5 mg/kg, mean AUC in anti-payload and anti-protein detection, Table 59",2.91 μghr/ml
same,Elimination half-life (hrs) Total Antibody,"[1]; mice, 1 × 5 mg/kg, Table 55",2.78 h
same,Elimination half-life (hrs) Total Antibody,"[1]; mice, 1 × 5 mg/kg, Table 59",2.78 h
same,plasma clearance (in words),"[1]; single i.v. dose, female BALB/c mice (5 mg/kg MMAF-C5, P5C5; 2 mg/kg AF-C5, DM1)",clears rapidly
same,association rate,HER2,2.8e+06 M⁻¹ s⁻¹
same,dissociation rate,HER2,0.00417 s⁻¹
same,"t1/2 (alpha), total antibody measured by anti-HER2 binding",[2]; [5],0.4 h
same,"t1/2 (beta), total antibody measured by anti-HER2 binding",[2]; [5],5.25 h
same,blood clearance (in words),[2]; measured directly,rapid blood clearance
same,stability after multiple freeze-thaw cycles,[3],stable
same,t1/2 (alpha),[4],0.4 h
same,t1/2 (beta),[4],4.3 h

# — patent publication US11202837B2, “Biological materials and uses thereof” (Antikor Biopharma Limited, priority 2014, dated 2021)
